Experimental findings from article doi:10.1101/2022.04.11.487887 (bioRxiv, 2022) are described below.

No end group written: not given here. Some results are limits rather than exact numbers.

The target of data set [1] is Halo-Xenopus γTuNA-GCN4 F75A (Xenopus laevis | yeast). Nature of the data set: SEC. On the technique in general: Size exclusion chromatography separates by hydrodynamic size, large species first.
For data set [2], the target named is Halo-Xenopus γTuNA-GCN4 wildtype (Xenopus laevis | yeast). In words: SEC.
Data set [3] deals with Halo-Xenopus γTuNA-GCN4 L77A (Xenopus laevis | yeast). Nature of the data set: SEC.
The target of data set [4] is Halo-Xenopus γTuNA-GCN4 I67A (Xenopus laevis | yeast). Nature of the data set: SEC.
Data set [5] concerns the target Halo-Xenopus γTuNA-GCN4 L70A (Xenopus laevis | yeast). In words: SEC.
Data set [6] addresses Halo-3C-AU1 reporter tagged human γTuNA, after PreScission (3C) cleavage (human). In words: co-sedimentation.
The target of data set [7] is Strep-His-Halo-3C-Xenopus γTuNA L70A (Xenopus laevis). In words: pull-down.
For data set [8], the target named is Strep-His-TEV-HaloTag-3C-Xenopus γTuNA (Xenopus laevis). In words: pull-down.
Data set [9] concerns the target Strep-His-Halo-3C-Xenopus γTuNA I67A (Xenopus laevis). In words: pull-down.
The data set “SEC” concerns the molecule itself. Nature of the data set: SEC.

Sequence of Xenopus γ-tubulin ring complex (γTuRC) (Q5U4M5 whole entry, looked up): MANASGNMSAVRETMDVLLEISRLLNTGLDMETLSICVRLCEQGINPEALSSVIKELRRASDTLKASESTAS
Sequence of Xenopus γ-tubulin ring complex (γTuRC) (P23330 whole entry, looked up): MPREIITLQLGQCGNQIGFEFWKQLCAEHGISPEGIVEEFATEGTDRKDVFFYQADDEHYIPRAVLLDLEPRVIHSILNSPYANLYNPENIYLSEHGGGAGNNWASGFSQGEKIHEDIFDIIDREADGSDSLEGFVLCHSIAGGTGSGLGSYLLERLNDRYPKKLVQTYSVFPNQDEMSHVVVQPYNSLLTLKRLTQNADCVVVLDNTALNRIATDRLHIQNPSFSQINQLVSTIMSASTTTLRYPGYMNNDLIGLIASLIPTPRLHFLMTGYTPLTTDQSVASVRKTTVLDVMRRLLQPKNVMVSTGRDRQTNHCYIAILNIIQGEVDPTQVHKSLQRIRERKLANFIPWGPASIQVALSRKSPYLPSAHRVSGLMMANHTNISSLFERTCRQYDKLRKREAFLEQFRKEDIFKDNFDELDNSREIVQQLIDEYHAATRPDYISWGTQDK

A word on the stoichiometry N: it is the number of molecules, sites or subunits per partner or assembly. In the case of Halo-Xenopus γTuNA-GCN4 F75A, in data set [1], the stoichiometry N was determined as 2.

Regarding Halo-Xenopus γTuNA-GCN4 wildtype, the stoichiometry N in [2] came out at 2.

In [3], Halo-Xenopus γTuNA-GCN4 L77A came in with a stoichiometry N of 2.

As for Halo-Xenopus γTuNA-GCN4 I67A, the stoichiometry N in data set [4] worked out at 2.

Halo-Xenopus γTuNA-GCN4 L70A returned a stoichiometry N in [5] of 2.

Molecule “Xenopus γ-tubulin ring complex (γTuRC) (from UniProt P23330 1-451; Q5U4M5 1-72)” displayed a percent of purified γTuRCs that lost their γTuNA dimer in data set [6] of 66%. Besides, the percent of the wildtype's γTuRC binding in data set [7] was found to be 50%; in data set [9] it was 85%. In addition, the percent of γ-tubulin signal lost from the extract after one round of depletion in data set [8] is > 75%.

As to MKDFEKQIAELKKENFNLKLRIYFLEEQVQQKCDNSSEDLYRMNIE (domain or fragment, Xenopus laevis, not fully specified (N-terminus)) [Strep-His-TEV-HaloTag-3C-Xenopus γTuNA], the “stoichiometry N” value in the data set “SEC” was found to be 2.

On to MKDFEKQAAELKKENFNLKLRIYFLEEQVQQKCDNSSEDLYRMNIE (domain or fragment, Xenopus laevis, not fully specified (N-terminus)) [Strep-His-Halo-3C-Xenopus γTuNA I67A], for which, in “SEC”, the binding result is “binds”.

On to MKDFEKQIAELKKENFNAKLRIYFLEEQVQQKCDNSSEDLYRMNIE (domain or fragment, Xenopus laevis, not fully specified (N-terminus)) [Strep-His-Halo-3C-Xenopus γTuNA L77A], for which the binding result in the data set “SEC” is “binds”.

MKDAEKQIAELKKENFNLKLRIYFLEEQVQQKCDNSSEDLYRMNIE (domain or fragment, Xenopus laevis, not fully specified (N-terminus)) [Strep-His-Halo-3C-Xenopus γTuNA F63A]: the binding result in “SEC” was “binds”.

For the molecule MKDFEKQIAEAKKENFNLKLRIYFLEEQVQQKCDNSSEDLYRMNIE (domain or fragment, Xenopus laevis, not fully specified (N-terminus)) [Strep-His-Halo-3C-Xenopus γTuNA L70A], the binding result in “SEC” was “binds”.

Take MKDFEKQIAELKKENANLKLRIYFLEEQVQQKCDNSSEDLYRMNIE (domain or fragment, Xenopus laevis, not fully specified (N-terminus)) [Strep-His-TEV-HaloTag-3C-Xenopus γTuNA F75A]: in “SEC”, the binding result is “binds”.

On to SPTRARNMKDFENQITELKKENFNLKLRIYFLEERMQQEFHGPTEH (domain or fragment, not fully specified (N-terminus)) [Strep-His-TEV-HaloTag-3C-human γTuNA], for which the “stoichiometry N” value in the data set “SEC” was 2.
